First the molecules themselves.
B1: V062 (antibody, V domains shown)
VH: QLQLQESGPGLVKPSETLSLTCTVSSGSISSSSYYWGWIRQPPGKGLEWIGSIYYSGSTYYNPSLKSRVTISVDTSKNQFSLKLSSVTAADTAVYYCARHWRENFAHAFDIWGQGTMVTVSS
VL: QSALTQPASVSGSPGQSITISCTGTSSDVGSYDLVSWFQQHPGKAPKLMIYEVTKRPSGVSNRFSGSKSGNTASLTISGLQAEDEADYYCCSYVGSSTYWVFGGGTKLTVL
notes: IgG; donor BRA15; source: recombinant monoclonal IgG, produced and purified as previously described
B2: V017 (antibody, V domains shown)
VH: EVQLVESGGGLVQPGGSLRLSCVASGFTFSTYSMNWVRQAPGKGLEWVSYISSSSSTIYYADSVKGRFTISRDNAKSSLYLQMNSLRAEDTAVYYCASGLCGGDCPLTCWGQGTLVTVSS
VL: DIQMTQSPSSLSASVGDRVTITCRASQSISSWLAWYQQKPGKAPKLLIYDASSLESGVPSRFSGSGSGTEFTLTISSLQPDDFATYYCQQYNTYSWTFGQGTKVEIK
notes: IgG; donor BRA13; source: recombinant monoclonal IgG, produced and purified as previously described
B3: V025 (antibody, V domains shown)
VH: QVQLVQSGAEVKKPGASVKVSCKASGYTFTSYGISWVRQAPGQGLEWMGWISVYNGKTNYAQKLQGRVTMTTDTSTSTAYMELRSLISDDTAVYYCARADRYNWDYGSSWGQGTLVTVSS
VL: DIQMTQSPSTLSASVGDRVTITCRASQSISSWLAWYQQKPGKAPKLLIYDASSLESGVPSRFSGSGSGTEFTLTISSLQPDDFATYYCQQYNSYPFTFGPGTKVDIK
notes: as for B2
B4: V020 (antibody, V domains shown)
VH: QVQLVESGGGVVQPGRSLRLSCAASGFTFSSYGMHWVRQAPGKGLEWVAVISYDGSNKYYADSVKGRFTISRDNSKNTLYLQMNSLRAEDTAVYYCAKGGWFGELLRYFDYWGQGTLVTVSS
VL: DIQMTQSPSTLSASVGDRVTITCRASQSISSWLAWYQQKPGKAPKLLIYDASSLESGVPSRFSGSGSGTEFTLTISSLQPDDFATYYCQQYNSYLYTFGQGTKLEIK
notes: as for B2
B5: V026 (antibody, V domains shown)
VH: QVQLVESGGGVVQPGRSLRLSCAVSGFTFSSYGMHWVRQAPGKGLEWVAVISYEGSNKYYADSVKGRFTISRDNSKNTLYLQMNSLRAEDTAVYYCAKGGWYGSPTYYFDYWGQGTLVTVSS
VL: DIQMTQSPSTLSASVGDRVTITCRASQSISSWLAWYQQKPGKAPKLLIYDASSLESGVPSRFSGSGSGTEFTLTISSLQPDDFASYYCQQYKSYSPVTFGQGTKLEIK
notes: as for B2
B6: V014 (antibody, V domains shown)
VH: EVQLVESGGGLVQPGGSLRLSCAASGFTFSSYDMHWVRQATGKGLEWVSAIGTAGDTYYPGSVKGRFTISRENAKNSLYLQMNSLRAGDTAVYYCARGVITMVRGVIRDYYYYGMDVWGQGTTVTVSS
VL: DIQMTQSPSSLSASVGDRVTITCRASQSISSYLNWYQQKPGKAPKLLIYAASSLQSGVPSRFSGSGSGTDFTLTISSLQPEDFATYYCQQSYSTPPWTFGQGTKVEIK
notes: as for B2
B7: V022 (antibody, V domains shown)
VH: EVQLVESGGGLVKPGGSLRLSCAASGFTFSSYSMNWVRQAPGKGLEWVSSISSTNNYIYNADSVKGRFTISRDNAKNSLYLQMNSLRAEDTAVYYCARDPAGRYSYGLYYFYYMDVWGKGTTVTVSS
VL: QSALTQPASVSGSPGQSITISCTGTSSDVGGYNYVSWYQQRPGKAPKLMIYDVSNRPSGVSDRFSGSKSGNTASLTISGLQAEDEADYYCTSYTSSSSLYVFGTGTKVTVL
notes: as for B2
B8: V019 (antibody, V domains shown)
VH: QVQLVQSGAEVKKPGSSVKVSCKASGGTFSTYTFSWVRQAPGQGLEWMGRIIPILGIANYAQKFQGRITITADKSTSTAYMELSSLRSEDTAVYYCAWGSYSYGYFVDIWGQGTMVTVSS
VL: DIVMTQTLLSLSVTPGQPASISCKSSQSLLHSDGKTYLYWYLQKPGQSPQLLIYEVSSRFSGVPDRFSGSGSGTDFTLKISRVEAEDVGVYYCMQGIQFHWTFGQGTKLEIK
notes: as for B2
B9: V024 (antibody, V domains shown)
VH: QVQLVESGGGVVQPGRSLRLSCAASGFTFSSYGMHWVRQAPGKGLEWVAVISYDGSNKYYADSVKGRFTISRDNSKNTLYLQMNSLRGEDTAVYYCAKAGYGYSYGYGQIDYWGQGTLVTVSS
VL: not shown
notes: IgG; donor BRA13
B10: V064 (antibody, V domains shown)
VH: EVQLVESGGGLVQPGGSLRLSCAASGLTVSRNYMRWVRQAPGKGLEWVSLIYSGGSTFYGDSVKGRFTISRDNSKNTLYLQMNSLRAEDTAVYYCARDLVRDGMDVWGQGTTVTVSS
VL: EIVMTQSPATLSVSPGERATLSCRASQSVSSNLAWYQQKPGQAPRLLIYGASTRATGIPARFSGSGSGTEFTLTISSLQSEDFAVYYCQQYNNWTFGQGTKVEIK
notes: as for B1
B11: V010 (antibody, V domains shown)
VH: QVQLQESGPGLVKPSETLSLTCTVSGGSISSYYWSWIRQPPGKGLEWIGYIYYNGSTNYNPSLKSRVTISLDTSKNQFSLKLSSVTAADTAVYYCASDYYDSSGYYYGFDYWGQGTLVTVSS
VL: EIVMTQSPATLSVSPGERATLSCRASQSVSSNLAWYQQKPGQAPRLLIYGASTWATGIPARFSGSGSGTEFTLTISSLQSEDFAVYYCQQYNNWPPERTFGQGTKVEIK
notes: as for B2
B12: V013 (antibody, V domains shown)
VH: QVQLVESGGGVVQPGRSLRLSCAGSGFIFSSFAMHWVRQAPGKGLEWVAVVSYDGDNKYYADSVKGRFTISRDNSKNTLYLQMDSLRPEDTAVYFCGRDEAALWIQRWYREIDFWGQGTLVTVSS
VL: QSVLTQPPSVSGTPGQRVTISCSGSSSNTGRNPVTWYQQFPGSAPKLLISRNNQRPSGVPDRFSGSKSGTSASLAISGLQSEDEADYYCAAWDDNLNGQVFGGGTKVTVL
notes: as for B2
B13: V011 (antibody, V domains shown)
VH: QVQLVQSGAEVKKPGASVKVSCKASGYIFTSYDINWVRQATGQGLEWMGWMNPNSGNTGYAQKFQGRVTMTRNTSISTAYMELSSLRSEDTAVYYCARASSSLTYYFDYWGQGTLVTVSS
VL: SYELTQPPSVSVAPGKTARITCGENNIGSKSVHWYQQKPGQAPVLVVYDDSDRPSGIPERFSGSNSGNTATLTISRVEAGDEADYYCQVWDSSSDPVVFGGGTKLTVL
notes: as for B2
B14: V002 (antibody, V domains shown)
VH: EVQLVESGGGLVQPGRSLRLSCAASGFTFDEYAMHWVRQAPGKGLEWVSGSSWNSGTIGYADSVKGRFTISRDNAKNSLYLQMNSLRAEDTALYYCAKSQGDYGGNSGAGYFQHWGQGTLVTVSS
VL: SYELTQPPSVSVAPGKTARITCGGNNIGSKSVHWYQQKPGQAPMLVVYDDSDRPSGIPERFSGSNSGNTATLTISRVEAGDEADYYCQVWDSSSEVYVFGTGTKVTVL
notes: as for B2
B15: V015 (antibody, V domains shown)
VH: EVQLVESGGGLVQPGGSLRLSCAASGFTFNSYWMSWVRQAPGKGLEWVANIKQDGSEKYYVDSVKGRFTISRDNAKNSLYLQMNSLRAEDTAVYYCARLPTYYSGFDYWGQGTLVTVSS
VL: NFMLTQPHSVSESPGKTVTISCTGSSGSIASNYVQWYQQRPGSAPTTVIYEDNQRPSGVPDRFSGSIDSSSNSASLTISGLKTEDEADYYCQSYDSTNRGVVFGGGTKLTVL
notes: as for B2
B16: V021 (antibody, V domains shown)
VH: QVQLQESGPGLVKPSQTLSLTCTVSGGSISSGSYYWSWIRQPVGKGLEWIGRIYTSGSTNYNPSLKSRVTISVDTSKNQFSLELSSVTAADRAVYYCARESSPASIPVRGVIWWFDPWGQGTLVTVSS
VL: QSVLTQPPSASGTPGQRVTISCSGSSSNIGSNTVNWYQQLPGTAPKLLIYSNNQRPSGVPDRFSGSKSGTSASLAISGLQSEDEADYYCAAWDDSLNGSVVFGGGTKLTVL
notes: IgG; donor BRA13
B17: V063 (antibody, V domains shown)
VH: QVQLVESGGGVVQPGRSLRLSCAASGFPFSSFGMHWVRQAPGKGLEWVAVISSDGSNKYYADSVKGRFTISRDNSKNTLYLQMNSLRAEDTAVYYCAKEFTYVVVTAFWGTENFDIWGQGTMVTVSS
VL: DIQMTQSPSTLSASVGDRVTITCRASQSISSWLAWYQQKPGKAPNLLIYKASALESGVPSRFSGSGSGTEFTLTISSLQPDDFATYYCQQYNSYPITFGQGTRLEIK
notes: as for B1
B18: V016 (antibody, V domains shown)
VH: QVQLVESGGGVVQPGRSLRLSCAASGFTFSNYGMHWVRQAPGKGLEWVAVISYDGSNKYYADSVKGRFTISRDNSKNTLYLQMNSVRVEDTAVYYCAKGSFGYSYVHTYFDYWGQGTLVTVSS
VL: DIQMTQSPSTLSASVGDRVTITCRASQSISSWLAWYQQKPGKAPKLLIYDASSLESGVPSRFSGSGSGTEFILTISSLQPDDFATYYCQQYNSPMYTFGQGTKLEIK
notes: as for B2
B19: V028 (antibody, V domains shown)
VH: QVQLVESGGGVVQPGRSLRLSCAASGFTFSSYGMHWVRQAPGKGLEWVAVVSFDGSDKYYADSVKGRFTISRDNSKNTLYLQMNSLRAEDTALYYCAKGGYSYAYPRYYFDYWGQGTLVTVSS
VL: DIQMTQSPSSLSASVGDRVTITCQASQDISNYLNWYQQKPGKAPKLLIYDASNLETGVPSRFSGSGSGTDFTFTISSLQPEDIATYYCQQHDNLPITFGQGTRLEIK
notes: IgG; donor BRA14; source: recombinant monoclonal IgG, produced and purified as previously described
B20: V031 (antibody, V domains shown)
VH: QVQLVESGGGVVQPGRSLRLSCAASGFTFSSYGMHWVRQAPGKGLEWVAVISYDGSNKYYADSVKGRFAFSRDNSKNTLYLQMNSLRAEDTAVYYCAKGGYSYAYPRYYFDYWGQGTLVTVSS
VL: DIQMTQSPSSLSASVGDRVTITCQASQDISNYLNWYQQKPGKAPKLLIYDASNLETGVPSRFSGSGSGTDFTFTISSLQPEDIATYYCQQHDNLPITFGQGTRLEIK
notes: as for B19
B21: V009 (antibody, V domains shown)
VH: EVQLVQSGAEVKKPGESLKISCKGSGYRFTSYWIGWVRQMPGKGLEWMGIIYAGDSDTRYSPSFQGQVTISVDKSISTAYLQWSSLKASDTAMYYCATTMTTGYFDYWGQGTLVTVSS
VL: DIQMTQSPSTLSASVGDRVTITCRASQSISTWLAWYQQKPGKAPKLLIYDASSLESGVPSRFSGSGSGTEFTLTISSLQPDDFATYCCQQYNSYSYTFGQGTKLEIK
notes: as for B2
B22: V027 (antibody, V domains shown)
VH: not shown
VL: NFMLTQPHSVSESPGKTVTISCTRSSGSIASNYVQWYQQRPGSAPTTVIYEDNQRPSGVPDRFSGSIDSSSNSASLTISGLKTEDEADYYCQSYDSSNHRVFGGGTKLTVL
notes: as for B19

For the experiment, the target named is T1, 417N/484K/501Y RBD mutant (SARS-CoV-2, Wuhan-Hu-1 RBD backbone …, 417N | 484K | 501Y).
T1 construct: also called RBD KEN
Kind of experiment: BLI. The note with it: both partners purified.
Usually Kd stands for the free concentration of one partner at which half of the binding sites on the other are occupied at equilibrium, for simple one-to-one binding. For the molecule B1, the Kd came out at 1.89 nM.

Consider B2, for which the Kd was 27.1 nM.

Regarding B3, binding was put at a Kd of 2.84 nM.

The molecule B4 showed a Kd of 94.8 nM.

As to B5, the Kd amounted to 11.9 nM. This Kd is about 8-fold lower than that of the molecule before.

The molecule B6 showed a dissociation constant (Kd) of 27.3 nM.

Consider B7, for which the Kd was found to be 5.71 nM.

For B8, the Kd stood at 3.31 nM.

Turning to B9, the Kd is 33.2 nM.

Molecule B10 registered a Kd of 1.91 nM.

As for B11, the affinity, expressed as Kd, was 2.11 nM.

B12 had a dissociation constant Kd of 166 nM.

B13 yielded a Kd of 6.96 nM.

B14 returned a Kd of 979 nM.

B15 had a Kd of 14.3 nM.

The molecule B16 displayed a Kd of 32.6 nM.

Molecule B17 came in with a Kd of 3.34 nM.

B18 returned a Kd of 4.43 nM. This Kd and that of the molecule before are within 1.5-fold of each other.

Turning to B19, the Kd was determined as 44.6 nM.

The molecule B20 registered an equilibrium dissociation constant (Kd) of 14.5 nM.

Molecule B21 came in with a Kd of 1.83 nM.

B22 displayed a Kd of 37.3 nM.

The values are drawn from paper PMC9270183 (The Journal of Experimental Medicine, 2022).
